The values below come from paper PMC4552014, “High Affinity Binders to EphA2 Isolated from Abdurin Scaffold Libraries; Characterization, Binding and Tumor Targeting” (PLoS ONE, 2015).

One test concerns the target human FcRn (human) (UniProt P55899). Kind of test: SPR; Biacore 3000, on hFcRn; who was immobilised and the conditions not given.
For test [1], the target named is T1, hEphA2 on CHOK1-EphA2 cells (human, UniProt P29317 24-976).
T1 construct: EphA2, human, transfection-ready hEphA2 cDNA (OriGene Technologies); also called cell-surface expressed hEphA2; source: CHOK1 cells transfected with hEphA2 cDNA (OriGene Technologies), single cell clone, on cells
T1 sequence (P29317 24-976): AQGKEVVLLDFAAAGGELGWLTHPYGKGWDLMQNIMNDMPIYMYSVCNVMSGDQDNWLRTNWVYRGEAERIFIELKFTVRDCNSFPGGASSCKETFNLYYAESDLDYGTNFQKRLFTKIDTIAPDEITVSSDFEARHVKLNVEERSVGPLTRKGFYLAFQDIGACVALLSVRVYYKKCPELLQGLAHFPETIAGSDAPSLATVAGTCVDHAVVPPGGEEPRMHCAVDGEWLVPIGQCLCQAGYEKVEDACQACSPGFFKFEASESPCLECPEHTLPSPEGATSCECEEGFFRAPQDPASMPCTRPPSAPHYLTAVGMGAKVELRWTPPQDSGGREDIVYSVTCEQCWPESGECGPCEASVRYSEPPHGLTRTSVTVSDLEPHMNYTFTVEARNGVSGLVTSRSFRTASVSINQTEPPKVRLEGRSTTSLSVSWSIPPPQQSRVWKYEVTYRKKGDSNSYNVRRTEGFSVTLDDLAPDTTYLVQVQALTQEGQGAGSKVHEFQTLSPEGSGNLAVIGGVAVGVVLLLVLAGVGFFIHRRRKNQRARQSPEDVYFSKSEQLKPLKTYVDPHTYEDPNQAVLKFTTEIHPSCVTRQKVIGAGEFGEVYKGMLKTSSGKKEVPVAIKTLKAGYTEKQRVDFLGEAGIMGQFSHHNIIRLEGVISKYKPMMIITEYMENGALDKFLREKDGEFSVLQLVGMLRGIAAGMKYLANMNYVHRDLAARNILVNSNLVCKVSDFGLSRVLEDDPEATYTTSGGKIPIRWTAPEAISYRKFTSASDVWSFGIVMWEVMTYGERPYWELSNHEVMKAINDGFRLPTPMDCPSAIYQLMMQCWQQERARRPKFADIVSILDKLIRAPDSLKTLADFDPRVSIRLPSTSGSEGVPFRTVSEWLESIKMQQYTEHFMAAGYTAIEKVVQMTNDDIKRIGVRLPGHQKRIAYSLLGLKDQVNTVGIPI
Kind of test: flow cytometry on cells; Abdurins at 1nM to 7μM incubated with CHOK1-EphA2 cells; detected with mouse anti-HisTag-FITC; the constant is printed as 'Affinity (M)'. To be noted: one partner purified. On the technique in general: Flow cytometry measures light scatter and fluorescence of single cells or particles in a stream.

Test [2] concerns the target T2, murine EphA2-Fc fusion protein (mouse, UniProt Q03145 26-538).
T2 construct: ephrin receptor tyrosine kinase class A2 (EphA2), mouse, extracellular domain as Fc chimera; Biotinylated in-house (EZ-Link Sulfo-NHS-LC-Biotin) for the CIS display selections and the screening ELISA; also called mEphA2-Fc; mEphA2; source: bought: R&D Systems
The test is described as follows: ELISA; end-point titration ELISA in 96-well plates coated with hEphA2-Fc or mEphA2-Fc; purified Abdurins titrated; detected by anti-FLAG M2-HRP; the constant is printed as 'Affinity (M)'. To be noted: both partners purified. Background: ELISA stands for enzyme-linked immunosorbent assay.

For the next test, the target named is T3, hEphA2-Fc (human, UniProt P29317 24-537).
T3 construct: EphA2, human, as Fc fusion coated on 96-well plates; Probably the extracellular domain; also called huEphA2
T3 sequence (P29317 24-537): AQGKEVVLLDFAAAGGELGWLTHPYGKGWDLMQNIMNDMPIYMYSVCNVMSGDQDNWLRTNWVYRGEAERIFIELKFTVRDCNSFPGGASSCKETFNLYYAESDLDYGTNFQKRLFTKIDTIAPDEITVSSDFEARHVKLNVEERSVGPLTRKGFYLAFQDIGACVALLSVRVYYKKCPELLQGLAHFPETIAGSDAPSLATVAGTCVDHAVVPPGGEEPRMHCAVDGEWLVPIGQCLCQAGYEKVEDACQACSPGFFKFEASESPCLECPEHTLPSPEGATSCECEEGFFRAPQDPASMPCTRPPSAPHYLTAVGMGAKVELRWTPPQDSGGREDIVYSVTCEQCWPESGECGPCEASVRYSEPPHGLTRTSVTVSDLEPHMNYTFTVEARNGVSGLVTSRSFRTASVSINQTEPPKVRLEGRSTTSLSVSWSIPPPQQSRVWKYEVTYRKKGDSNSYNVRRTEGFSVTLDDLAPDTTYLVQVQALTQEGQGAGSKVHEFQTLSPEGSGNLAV
The description is as above. The conditions noted are these: both partners purified.

For test [3], the target named is human EphA2 recombinant protein (human, UniProt P29317 24-976, Construct limits are not given; the soluble recombinant receptor is taken as the mature extracellular domain from the UniProt features. The Fig 3 legend names an Fc fusion (hEphA2-Fc), and the Fc is). The test is described as follows: SPR; Biacore 3000; hEphA2 immobilised on CM5 chip by amine coupling (500 RU); Abdurins as analyte, multi-cycle kinetics in HBS-P (50 mM Hepes pH 7.4, 150 mM NaCl, 0.005% P-20), 40 μl/minute; 1:1 binding model; repeated three times. The conditions noted are these: both partners purified. For orientation: In SPR one partner is held on a chip, and binding of the other changes the refractive index at the surface.
human EphA2 recombinant protein, sequence (P29317 24-976): as the sequence (P29317 24-976) above

Test [4] has as its target T2, murine EphA2-Fc fusion protein. The test is described as follows: SPR; Biacore 3000, on mEphA2; purified Abdurins from E. coli; immobilisation for mEphA2 not described. To be noted: both partners purified.

Positions count from the first letter of the chain named.

T2 sequence (Q03145 26-538): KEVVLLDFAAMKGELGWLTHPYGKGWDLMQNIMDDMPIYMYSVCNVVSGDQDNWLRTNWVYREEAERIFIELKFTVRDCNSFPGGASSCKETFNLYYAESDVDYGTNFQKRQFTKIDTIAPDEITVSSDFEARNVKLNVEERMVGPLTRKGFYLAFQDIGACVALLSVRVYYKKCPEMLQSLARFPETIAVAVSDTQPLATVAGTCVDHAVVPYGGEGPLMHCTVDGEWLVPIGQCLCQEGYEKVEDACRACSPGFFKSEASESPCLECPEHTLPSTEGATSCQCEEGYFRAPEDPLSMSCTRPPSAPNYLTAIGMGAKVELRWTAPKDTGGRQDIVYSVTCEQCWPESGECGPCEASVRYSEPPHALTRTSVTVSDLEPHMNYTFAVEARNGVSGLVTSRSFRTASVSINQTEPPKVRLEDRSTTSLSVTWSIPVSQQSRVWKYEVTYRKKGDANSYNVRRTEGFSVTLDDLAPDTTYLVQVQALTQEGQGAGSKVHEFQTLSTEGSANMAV

As for “shWTCH2 (version of the wild-type CH2 domain that has the N-terminal seven amino acids truncated) (domain or fragment)”, in the test with human FcRn (human), the Kd (as a rule, the equilibrium constant for the complex coming apart) was found to be 25 nM; the koff (commonly the first-order rate constant of dissociation) amounted to 0.017 s⁻¹; the kon – broadly, the second-order rate constant of association – stood at 1.5e+06 M⁻¹ s⁻¹.

B1: Abdurin B11, affinity matured EphA2 binder (designed binder)
chain: GPSVFLFPPKPKDTLMISRTPEVTCVVVDYRADYLEVKFNWYVDGVEVHNAKTKPRQYDPLYGYRVVSVLTVLHQDWLNGKEYKCKVSNKALPAPIEKTISKAK
notes: Abdurin scaffold (human IgG1 CH2 domain), stretch before loop BC; loop BC of matured clone B11, in place of Val266-Pro271 (VSHEDP) of the scaffold; Abdurin scaffold (human IgG1 CH2 domain), stretch between loops BC and DE; loop DE from the parental clone E10, in place of Glu293-Thr299 (EEQYNST); Abdurin scaffold (human IgG1 CH2 domain), stretch after loop DE; Not the phage loop DE clone of the …
Take B1: the Kd was found to be 26 nM with human FcRn (human), 403 nM in test [1], 9.89 nM in test [2] and 4.43 nM with hEphA2-Fc. Also, the values for the koff (in the test with human FcRn (human); in test [3]) were 0.013 s⁻¹ and 0.0158 s⁻¹, respectively. Moreover, the figures for the kon (with human FcRn (human); in test [3]) were 1.1e+06 M⁻¹ s⁻¹ and 1.21e+06 M⁻¹ s⁻¹, respectively.

B2: Abdurin D2, affinity matured EphA2 binder (designed binder)
chain: B1 chain with R31E, D33A, Y34A
notes: Abdurin scaffold (human IgG1 CH2 domain), stretch before loop BC; loop BC of matured clone D2, in place of Val266-Pro271 (VSHEDP) of the scaffold; Abdurin scaffold (human IgG1 CH2 domain), stretch between loops BC and DE; loop DE from the parental clone E10, in place of Glu293-Thr299 (EEQYNST); Abdurin scaffold (human IgG1 CH2 domain), stretch after loop DE; Not the phage loop DE clone of the …
With B2, the Kd in test [1] came out at 1310 nM; in test [2] it was 1.97 nM; with hEphA2-Fc it was 2.55 nM.

B3: Abdurin H6, purified loop DE binder (designed binder)
chain: B1 chain with Y30V, R31S, A32H, D33E, Y34D, L35P, Q57R, Y58V, Y62G
notes: Abdurin scaffold (human IgG1 CH2 domain), stretch before loop DE; loop DE of clone H6, in place of Glu293-Thr299 (EEQYNST) of the scaffold; Abdurin scaffold (human IgG1 CH2 domain), stretch after loop DE
On to B3, for which, in test [4], the Kd turned out to be 873 nM, the koff was found to be 0.008 s⁻¹ and the kon came to 9610 M⁻¹ s⁻¹.

B4: Abdurin G7, affinity matured EphA2 binder (designed binder)
chain: B1 chain with Y30P, R31H, A32L, D33G, Y34V, L35D
notes: Abdurin scaffold (human IgG1 CH2 domain), stretch before loop BC; loop BC of matured clone G7, in place of Val266-Pro271 (VSHEDP) of the scaffold; Abdurin scaffold (human IgG1 CH2 domain), stretch between loops BC and DE; loop DE from the parental clone E10, in place of Glu293-Thr299 (EEQYNST); Abdurin scaffold (human IgG1 CH2 domain), stretch after loop DE; source: E. coli Shuffle cells, …
Regarding B4, the Kd in test [1] is 333 nM; in test [2], 3.18 nM; with hEphA2-Fc it was 8.06 nM. Further, the koff in test [3] amounted to 0.0375 s⁻¹. The kon in test [3] stood at 1.8e+06 M⁻¹ s⁻¹.

B5: Abdurin B6, affinity matured EphA2 binder (designed binder)
chain: B1 chain with Y30P, R31Y, A32L, D33H, Y34D, L35D
notes: Abdurin scaffold (human IgG1 CH2 domain), stretch before loop BC; loop BC of matured clone B6, in place of Val266-Pro271 (VSHEDP) of the scaffold; Abdurin scaffold (human IgG1 CH2 domain), stretch between loops BC and DE; loop DE from the parental clone E10, in place of Glu293-Thr299 (EEQYNST); Abdurin scaffold (human IgG1 CH2 domain), stretch after loop DE; source: E. coli Shuffle cells, …
For the molecule B5, the Kd came out at 38 nM with human FcRn (human), 151 nM in test [1], 3.5 nM in test [2] and 6.54 nM with hEphA2-Fc. Also, the koff with human FcRn (human) worked out at 0.011 s⁻¹; in test [3] it was 0.0496 s⁻¹. Further, the values for the kon (in the test with human FcRn (human); in test [3]) were 1.1e+06 M⁻¹ s⁻¹ and 716000 M⁻¹ s⁻¹, respectively.
